This is an account of results in patent publication US20220332804A1 (CSL INNOVATION, published 2022).

Where a chain is given by its changes, count along the chain named.

What all share (assay): SPR, KD relative to WT C2;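 further: biacore SPR at 37 °C, anti-C2 mAbs captured via immobilised goat anti-human IgG, C2 alanine or serine surface mutants as analytes, 1:1 model fitted, double-referenced sensograms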
A general note: In SPR one partner is held on a chip, and binding of the other changes the refractive index at the surface.

The target in one assay is T1, human C2 S469A (human, UniProt P06681 21-752).
T1 sequence: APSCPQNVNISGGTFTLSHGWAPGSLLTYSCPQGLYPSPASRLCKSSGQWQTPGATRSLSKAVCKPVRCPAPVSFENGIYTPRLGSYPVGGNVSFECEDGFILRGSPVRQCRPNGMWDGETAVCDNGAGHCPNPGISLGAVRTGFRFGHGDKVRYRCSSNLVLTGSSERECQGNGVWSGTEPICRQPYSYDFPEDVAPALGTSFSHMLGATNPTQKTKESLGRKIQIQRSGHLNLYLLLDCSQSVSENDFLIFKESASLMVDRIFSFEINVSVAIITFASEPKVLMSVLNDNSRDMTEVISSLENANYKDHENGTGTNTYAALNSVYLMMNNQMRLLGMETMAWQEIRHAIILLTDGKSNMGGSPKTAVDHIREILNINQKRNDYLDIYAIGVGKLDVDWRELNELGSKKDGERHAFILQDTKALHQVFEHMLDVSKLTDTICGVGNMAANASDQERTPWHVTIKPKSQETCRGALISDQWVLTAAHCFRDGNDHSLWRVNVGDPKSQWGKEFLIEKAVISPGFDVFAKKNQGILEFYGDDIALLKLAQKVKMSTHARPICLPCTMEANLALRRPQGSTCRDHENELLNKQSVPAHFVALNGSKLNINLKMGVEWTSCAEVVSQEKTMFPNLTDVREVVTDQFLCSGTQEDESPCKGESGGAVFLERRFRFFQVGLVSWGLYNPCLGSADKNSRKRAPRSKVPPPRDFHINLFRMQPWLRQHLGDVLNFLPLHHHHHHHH

A further assay addresses T2, human C2 N424A (human, UniProt P06681 21-752).
T2 sequence: T1 sequence with N404A, A449S

The target of another assay is T3, human C2 F270A (human, UniProt P06681 21-752).
T3 sequence: T1 sequence with F250A, A449S

The target in the next assay is T4, human C2 E433A (human, UniProt P06681 21-752).
T4 sequence: T1 sequence with E413A, A449S

Procedure for human C2 E433A: (§1) Surface plasmon resonance (SPR, Biacore) was used for all binding affinity analyses. In brief, goat anti-human IgG was directly immobilised onto the carboxymethyl dextran surface of CM5 sensorchips to approximately 12,000 RU using standard NHS/EDC chemistry at pH 5. The immobilised antibody surface was pre-conditioned with ten injections of polyclonal human IgG (Privigen 60 s) prepared at 1 μg/mL. Ligands (anti-C2 mAbs) were captured at the beginning of each cycle as described below. An adjacent spot or flow cell in which only Polyclonal IgG was capture was used as a reference surface. The goat anti-human IgG Fc antibody surface was regenerate in 100 mM H3PO4, injected for 45 seconds at the end of each cycle. Experiments were performed at 37° C. and the flow rate of each experiment was kept constant at 30 μL/min.
(§2) Sensogram data was double-referenced against a reference anti-IgG surface (i.e. minus anti-C2 mAb) and blank buffer injections obtained within each experiment. The binding data was fit to 1:1 (kinetic or steady-state) model using local Rmax and null refraction index (RI=0) when appropriate. Buffers and solutions were filtered (0.22 μm) prior to use.
Procedure for human C2 F270A: as §1, §2
Procedure for human C2 N424A: as §1, §2
Procedure for human C2 S469A: as §1, §2

B1: RF16-226 (antibody, human IgG4 S228P, lambda)
heavy: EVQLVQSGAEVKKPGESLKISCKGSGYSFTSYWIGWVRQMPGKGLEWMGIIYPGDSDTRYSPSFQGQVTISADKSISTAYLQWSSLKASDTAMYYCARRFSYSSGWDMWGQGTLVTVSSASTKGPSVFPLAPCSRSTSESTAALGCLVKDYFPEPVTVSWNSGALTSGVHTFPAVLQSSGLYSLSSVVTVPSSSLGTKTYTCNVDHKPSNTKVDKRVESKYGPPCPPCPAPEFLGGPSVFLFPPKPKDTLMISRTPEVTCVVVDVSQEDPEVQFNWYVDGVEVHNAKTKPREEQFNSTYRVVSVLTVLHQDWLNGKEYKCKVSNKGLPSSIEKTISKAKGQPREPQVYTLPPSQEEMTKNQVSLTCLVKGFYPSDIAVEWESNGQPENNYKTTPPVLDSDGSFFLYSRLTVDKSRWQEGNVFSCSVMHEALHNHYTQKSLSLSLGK
light: SYELTQPPSVSVSPGQTARITCSGDALTSKYVAWYQQKSGLAPLLVIYEDTRRPSGIPAKFSGSSSGSVATLTISGAHGDDEADYYCYSTDASGHQRVFGGGTKLTVLSQPKAAPSVTLFPPSSEELQANKATLVCLISDFYPGAVTVAWKADGSPVKAGVETTKPSKQSNNKYAASSYLSLTPEQWKSHRSYSCQVTHEGSTVEKTVAPTECS
notes: pH-dependent anti-C2 antibody from a phage display library; also called WT
As for B1, the Fold diff in the assay with human C2 S469A was 3 fold; with human C2 N424A, 0 fold; with human C2 F270A it was 10 fold; with human C2 E433A it was 0 fold.
